Test results taken from patent publication US20030091557.

Test system: ACE-2 inhibitor peptide (the most active ACE-2 inhibitor peptide)

Substance	hydrolysis of the substrate hip-his-leu (250 mM) by ACE (1.5 nM)	conversion of angiotensin I to A1-9 by ACE-2
Angiotensin converting enzyme (ACE)	the inhibitor did not affect the hydrolysis of the substrate, hip-his-leu (250 mM) by ACE (1.5 nM), even at 25 mM	
recombinant human ACE-2		This peptide also inhibited conversion of angiotensin I to A1-9 by ACE-2
